In patent publication US20220227861A1 (UNIVERSITY COLLEGE CARDIFF CONSULTANTS, published 2022):

Target: T1, ZIP10 (SLC39A10) zinc transporter, endogenous in cells (human, UniProt Q9ULF5 26-831)
T1 construct: Endogenous ZIP10 of MCF-7 cells or of ZIP6-transfected cells
T1 sequence: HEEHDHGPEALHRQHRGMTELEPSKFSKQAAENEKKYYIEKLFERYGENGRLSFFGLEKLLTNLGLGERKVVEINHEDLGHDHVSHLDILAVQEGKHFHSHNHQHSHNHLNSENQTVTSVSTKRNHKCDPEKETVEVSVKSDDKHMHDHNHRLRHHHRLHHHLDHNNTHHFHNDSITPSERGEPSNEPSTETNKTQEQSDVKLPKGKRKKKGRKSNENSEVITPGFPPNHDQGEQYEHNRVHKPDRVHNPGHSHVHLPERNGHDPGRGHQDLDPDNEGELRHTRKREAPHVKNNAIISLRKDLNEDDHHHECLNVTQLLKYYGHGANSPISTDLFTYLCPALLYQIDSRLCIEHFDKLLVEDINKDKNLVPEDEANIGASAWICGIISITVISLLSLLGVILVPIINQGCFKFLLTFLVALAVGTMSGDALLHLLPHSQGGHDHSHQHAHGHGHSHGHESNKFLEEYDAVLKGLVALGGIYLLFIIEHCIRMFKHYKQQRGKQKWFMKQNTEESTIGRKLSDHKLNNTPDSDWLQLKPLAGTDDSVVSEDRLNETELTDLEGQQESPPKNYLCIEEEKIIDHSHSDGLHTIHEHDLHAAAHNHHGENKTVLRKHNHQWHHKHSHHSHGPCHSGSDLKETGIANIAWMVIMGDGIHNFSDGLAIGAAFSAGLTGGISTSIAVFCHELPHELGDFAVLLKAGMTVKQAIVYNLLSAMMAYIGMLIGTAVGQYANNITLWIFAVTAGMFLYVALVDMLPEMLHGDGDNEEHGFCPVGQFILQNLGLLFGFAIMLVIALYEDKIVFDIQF
Test: immunoprecipitation with V5 antibody, Western blot for ZIP10
Procedure: FIG. 2. […] [A] FACS cell cycle analysis confirms the increase in the G2/M population in nocodazole-treated cells, compared to control. […] Statistical significance is determined by Student's t test. *** p<0.001. [B] Control PLA using either our ZIP6-Y or our ZIP10 antibodies alone in nocodazole-treated MCF-7 cells produces only a few dots in mitotic cells (arrow), compared to FIG. 3D. Scale bar, 20 μm. [C] […] [D] FACS cell cycle analysis confirms the increase in the G2/M population in the non-adherent cells collected using the mitotic shake-off technique, compared to the adherent cells from the same dishes. […] Statistical significance is determined by Student's t test. *** p<0.001. [E] PLA using ZIP6-SC and pY⁷⁰⁵STAT3 antibodies together as well as individual control ZIP6-SC and […] antibodies in nocodazole-treated MCF-7 cells produces only few dots, compared to FIG. 5F.
Cells were harvested, washed with PBS, lysed for 1 hour at 4° C. with lysis buffer pH7.6 (50 mM Tris, 150 mM NaCl, 5 mM EGTA and 1% Triton X-100) with protease inhibitor cocktail for mammalian cells (Signa-Aldrich) and phosphatase inhibitors (2 mM sodium orthovanadate and 50 mM sodium fluoride). Protein was measured using Bio-Rad/Bradford dye-binding protein microassay. Western Blot results of 40 μg/lane from three separate experiments were normalised to GAPDH values. […]

binding result: binds
B1: recombinant ZIP6 wild-type with C-terminal V5 tag (other)
chain: FPQTTEKISPNWESGINVDLAISTRQYHLQQLFYRYGENNSLSVEGFRKLLQNIGIDKIKRIHIHHDHDHHSDHEHHSDHERHSDHEHHSEHEHHSDHDHHSHHNHAASGKNKRKALCPDHDSDSSGKDPRNSQGKGAHRPEHASGRRNVKDSVSASEVTSTVYNTVSEGTHFLETIETPRPGKLFPKDVSSSTPPSVTSKSRVSRLAGRKTNESVSEPRKGFMYSRNTNENPQECFNASKLLTSHGMGIQVPLNATEFNYLCPAIINQIDARSCLIHTSEKKAEIPPKTYSLQIAWVGGFIAISIISFLSLLGVILVPLMNRVFFKFLLSFLVALAVGTLSGDAFLHLLPHSHASHHHSHSHEEPAMEMKRGPLFSHLSSQNIEESAYFDSTWKGLTALGGLYFMFLVEHVLTLIKQFKDKKKKNQKKPENDDDVEIKKQLSKYESQLSTNEEKVDTDDRTEGYLRADSQEPSHFDSQQPAVLEEEEVMIAHAHPQEVYNEYVPRGCKNKCHSHFHDTLGQSDDLIHHHHDYHHILHHHHHQNHHPHSHSQRYSREELKDAGVATLAWMVIMGDGLHNFSDGLAIGAAFTEGLSSGLSTSVAVFCHELPHELGDFAVLLKAGMTVKQAVLYNALSAMLAYLGMATGIFIGHYAENVSMWIFALTAGLFMYVALVDMVPEMLHNDASDHGCSRWGYFFLQNAGMLLGFGIMLLISIFEHKIVFRINF
notes: Expressed by transfection and immunoprecipitated from cell lysate with V5 antibody; also called ZIP6 wild-type (WT); ZIP6/LIV-1/SLC39A6 in pcDNA3.1/V5-His-TOPO; not shown: C-terminal V5 tag from vector pcDNA3.1/V5-His-TOPO
